Laboratory results as given in patent US20040063188A1.

Target: recombinant HPV-16 L1 VLPs (baculovirus-derived, from Sf-9S insect cells) (human papillomavirus type 16) (UniProt P03101)
Experiment: ELISA; 1000 ng VLPs mixed with infected-cell supernatants; reference is the same pair with VLPs in buffer or in sucrose (FIG. 11)

Chain of UniProt P03101 (P03101 whole entry): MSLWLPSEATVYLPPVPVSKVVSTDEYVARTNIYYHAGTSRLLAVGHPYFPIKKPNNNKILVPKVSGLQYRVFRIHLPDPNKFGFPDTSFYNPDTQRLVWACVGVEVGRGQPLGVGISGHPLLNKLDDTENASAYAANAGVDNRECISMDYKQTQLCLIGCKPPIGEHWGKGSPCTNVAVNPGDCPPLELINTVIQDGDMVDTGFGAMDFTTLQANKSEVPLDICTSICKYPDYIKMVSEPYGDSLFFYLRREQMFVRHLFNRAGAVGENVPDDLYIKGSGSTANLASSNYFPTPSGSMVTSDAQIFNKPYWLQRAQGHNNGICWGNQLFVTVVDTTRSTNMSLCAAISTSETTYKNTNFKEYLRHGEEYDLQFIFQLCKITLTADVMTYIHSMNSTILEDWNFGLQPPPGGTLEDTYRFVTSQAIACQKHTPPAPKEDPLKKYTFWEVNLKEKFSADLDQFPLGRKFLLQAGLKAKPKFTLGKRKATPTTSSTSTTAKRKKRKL

With H16.V5 murine monoclonal antibody the fold decrease in binding activity was 5 fold.
